Data on 16 molecules can be found in patent publication US20260258115A1 (MAPP BIOPHARMACEUTICAL, published 2026).

Residue numbers refer to the chain shown, from its start.

One assay concerns the target RSV F on RSV-A2 virus (Respiratory Syncytial Virus (RSV-A2), UniProt P03420 26-574). Kind of assay: cell-based or functional assay.
Assay [1] deals with RSV prefusion F (preF), DS-Cav1 (Respiratory Syncytial Virus, UniProt P03420 26-513). Kind of assay: BLI, IgG on anti-human IgG sensor, 100 nM antigen, 1:1 fit. A general note: BLI is a label-free optical method that tracks binding on a fibre tip over time.
For assay [2], the target named is RSV postfusion F (postF), F ΔFP (Respiratory Syncytial Virus, UniProt P03420 26-513). The description is as above.
The target in assay [3] is T1, RSV prefusion F (preF), subtype B (respiratory syncytial virus subtype B).
T1 construct: also called Prefusion subtype B
The assay can be described thus: BLI, IgG.

Assay [4] concerns the target RSV F on RSV subtype B virus (mKate-RSV B 18537) (respiratory syncytial virus B 18537, UniProt P13843 26-574). The assay can be described thus: cell-based or functional assay.
Assay [5] has as its target RSV F on RSV subtype A virus (mKate-RSV A2) (respiratory syncytial virus A2, UniProt P03420 26-574). The assay can be described thus: cell-based or functional assay.
For assay [6], the target named is T2, RSV postfusion F (postF), subtype A (respiratory syncytial virus subtype A, UniProt P03420 26-513).
T2 construct: also called Postfusion subtype A; F deltaFP
The assay can be described thus: BLI.

B1: ADI-41455 (antibody, V domains shown)
VH: QVQLQESGPGLVKPSQTLSLTCSVSEGSVISGDYYWSWIRQSPGKGLEWLGYIHYSGSTYYNPSLKSRVTISVDTSKKQFSLKLSSVTAADTAVYYCARDLGCIGGVCSAYGLEHNYYFGMDVWGQGTTVTVSS
VL: EIVLTQSPATLSLSPGERATLSCRASQSVSSYLAWYQQKPGQAPRLLIYTASNRATGIPARFSGSGSGTDFTLTISSLEPEDFAVYYCQQRSSWPPYTFGQGTKLEIK
Take B1: the “Neutralization IC50 (RSV subtype A)” value in the assay with RSV F on RSV-A2 virus was over 25 µg/mL. For the same molecule, the Kd is 1.53 nM in assay [1] and 0.638 nM in assay [2].

B2: ADI-19421 (antibody, V domains shown)
VH: EVQLLESGGGVVQPGRSLRLSCAASGFTFSSYGMHWVRQAPGKGLEWVAVISYDGSNKYYADSVKGRFTISRDNSKNTLYLQMNSLRAEDTAVYYCAKDIHHVLRFLDPDYWGQGTLVTVSS
VL: QSVLIQPASVSGFPGQSITISCTGTSSDVGGYNYVSWYQQHPGKAPKLMIYEVSNRPSGVSNRFSGSKSGNTASLTISGLQAEDEADYYCSSYTSSSTLVFGGGTKLTVL
notes: full-length IgG
B2 gave a dissociation constant Kd in assay [3] of 5.42 nM. For the same molecule, in assay [4], the “Neut IC50 subtype B” value is 3.3 µg/mL. Moreover, in assay [5], the “Neut IC50 subtype A” value was determined as 10 µg/mL. Also, the binding result in assay [6] is on record as “no binding”.

B3: ADI-25567 (antibody, V domains shown)
VH: QVQLQQWGAGLLKPSETLSLTCAVYGGSFSGYYWSWIRQPPGKGLEWIGEINHSGSTNYNPSLKSRVTISVDTSKNQFSLKLSSVTAADTAVYYCARGLPRFGVVTPNWFDPWGQGTLVTVSS
VL: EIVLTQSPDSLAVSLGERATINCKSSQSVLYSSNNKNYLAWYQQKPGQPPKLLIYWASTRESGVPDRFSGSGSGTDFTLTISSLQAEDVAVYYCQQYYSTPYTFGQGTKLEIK
notes: full-length IgG
B3 returned a Kd in assay [3] of 3.83 nM. In addition, the “Neut IC50 subtype B” value in assay [4] was determined as 1.94 µg/mL. The “Neut IC50 subtype A” value in assay [5] amounted to 0.33 µg/mL. In addition, the binding result in assay [6] is “no binding”.

B4: ADI-41460 (antibody, V domains shown)
VH: QVTLKESGPALVKPTQTLTLTCTFSGFSLNTRGMCVSWVRQPPGKALEWLARIDWDDDKNYSTSLRTRLTISKDTSRNQVVLAMANMDPVDTATYYCARCARYDRSGYYVWYLDSWGQGTLVTVSS
VL: DIQMTQSPSSLSASVGDRVTITCRASQTIASYLNWYQQKPGKAPKLLIYVASTLQSGVPSRFSGSGSGTDFTLTISSLQPEDFATYYCQQSYSLTQWTFGQGTKVEIK
Consider B4, for which, in the assay with RSV F on RSV-A2 virus, the “Neutralization IC50 (RSV subtype A)” value is over 25 µg/mL. For the same molecule, the dissociation constant Kd in assay [1] worked out at 1.23 nM; in assay [2], 0.632 nM.

B5: ADI-19425 (antibody, V domains shown)
VH: EVQLVESGGGLVKPGGSLRLSCAASGFTFSSYSMNWVRQAPGKGLEWVSSISSSSSYIYYADSVKGRFTISRDNAKNSLYLQMNSLRAEDTAVYYCARLGYCSGGSCHFDYWGQGTLVTVSS
VL: QPVLTQPPSVSGAPGQRVTISCTGSSSNIGAGYDVHWYQQLPGTAPKLLIYGNSNRPSGVPDRFSGSKSGTSASLAITGLQAEDEADYYCQSYDSSLSGFYVFGTGTKLTVL
notes: full-length IgG; also called Ab 140
For the molecule B5, in assay [3], the Kd is 1.37 nM. In assay [4], the “Neut IC50 subtype B” value was determined as 0.04 µg/mL. In assay [5], the “Neut IC50 subtype A” value is 0.02 µg/mL. In addition, in assay [6], the binding result is recorded as “no binding”.

B6: ADI-19422 (antibody, V domains shown)
VH: not shown
VL: QPVLTQPPSVSVAPGKTARITCGGNNIGSKSVHWYQQKPGQAPVLVVYDDSDRPSGIPERFSGSNSGNTATLTISRVEAGDEADYYCQVWDSSSDHWVFGGGTKLTVL
notes: full-length IgG
In the case of B6, the equilibrium dissociation constant (Kd) in assay [3] is 10.8 nM. The “Neut IC50 subtype B” value in assay [4] is 1.9 µg/mL. Besides, the “Neut IC50 subtype A” value in assay [5] came out at 0.73 µg/mL. Further, the binding result in assay [6] is on record as “no binding”.

B7: ADI-41550 (antibody, V domains shown)
VH: QVQLVQSGAEVKMPGASVRVSCKASGYTLGSHGITWVRQAPGQGLEWMGWISANNFNTHYAQKFQGRVTMTTDTSTSTAYMELRSLRSDDTAVYYCAREVMGHMVETISFDYWGQGTLVTVSS
VL: B6 VL with K16Q, K30E, Y48H, S92F, S93T, S94P, W97P, L105V
Consider B7, for which, in the assay with RSV F on RSV-A2 virus, the “Neutralization IC50 (RSV subtype A)” value is over 25 µg/mL. Also, the affinity in assay [2], expressed as Kd, was 25.7 nM.

B8: ADI-19424 (antibody, V domains shown)
VH: EVQLLESGGGLVQPGGSLRLSCAASGFTVSSNYMSWVRQAPGKGLEWVSDIYSGGRTDYADSVKGRFTISRDNSKNTLDLQMNSLRAEDTAVYYCARETLGMDHWYFDLWGRGTLVTVSS
VL: B6 VL with V3G, S93T, W97P
notes: full-length IgG
In assay [3], B8 came in with a Kd of 1.71 nM. In assay [4], the “Neut IC50 subtype B” value amounted to 0.21 µg/mL. Moreover, the “Neut IC50 subtype A” value in assay [5] is 0.08 µg/mL. Moreover, in assay [6], the binding result was “no binding”.

B9: ADI-41461 (antibody, V domains shown)
VH: QVQLVQSGAEVKKPGASVKVSCRASGYTFSSYDINWVRQATGQGLEWMGWMSPNSANTGYAQKFQGRVTMTRDTSINTAYMELSSLSSEDTAVYYCARFLGYCSGGSCYPGYGMDVWGQGTTVTVSS
VL: EIVLTQSPDSLAVSLGERATINCKSSQNVLYSSNNKDYLSWYQQKPGQPPKLLIYWASTRESGVPDRFSGSGSGTDFTLTINSLQAEDVAVYYCQQYYGTPYTFGQGTKLEIK
Turning to B9, the “Neutralization IC50 (RSV subtype A)” value with RSV F on RSV-A2 virus is over 25 µg/mL. Besides, the Kd in assay [1] was 2.3 nM; in assay [2], 0.548 nM.

B10: ADI-41463 (antibody, V domains shown)
VH: QVQLVQSGAEVKKPGASVKVSCTASGYSFTDYDISWVRQAPGQGLEWMGWISAYNGNTNYAQKFQDRVTMNTDTSTNTAYMELRGLRSDDTAVYYCARNCYYGSGTCYIEDYYFDYWGQGTLVTVSS
VL: DIQMTQSPSSLSASVGDRVTITCRASQDIKNDLGWYQQKPGKPPKRLIYGASRSQSGVPSRFSGSGSGTDFTLTIYSLQPEDFATYYCLQHSDYPFTFGQGTRLEIK
notes: also called Ab 747; Antibody Number 747
Turning to B10, the “Neutralization IC50 (RSV subtype A)” value with RSV F on RSV-A2 virus was over 25 µg/mL. The results for the Kd in assay [1] and in assay [2] were 2.68 nM and 0.485 nM, respectively.

B11: ADI-25555 (antibody, V domains shown)
VH: QVQLVQSGGGLVKPGGSLRLSCAASGFTFSSYSMNWVRQAPGKGLEWVSSISSSSSYIYYADSVKGRFTISRDNAKNSLYLQMNSLRAEDTAVYYCARQRGGIAVAGTYFDLWGRGTLVTVSS
VL: QPVLTQPPSVSGAPGQRVTISCTGSSSNIGAGYDVHWYQQLPGTAPKLLIYGNSNRPSGVPDRFSGSKSGTSASLAITGLQAEDEADYYCQSYDSTVVFGGGTKLTVL
notes: full-length IgG
In assay [3], B11 came in with a Kd of 44.7 nM. In addition, the “Neut IC50 subtype B” value in assay [4] is 12.1 µg/mL. Moreover, the “Neut IC50 subtype A” value in assay [5] amounted to 18.6 µg/mL. For the same molecule, the binding result in assay [6] is listed as “no binding”.

B12: ADI-41464 (antibody, V domains shown)
VH: QVQLVESGPGLVRPSGTLSLTCTVSGDSVNSYRWSWIRQSPGKGLEWIGYISYSGETNYNPSLKSRVSISVGTSRYQFFLKLSSVTAADTATYYCARDKTTIFGVSHYYFGVDVWGQGTTVTVSS
VL: DIVMTQTPLSLPVTPGEPASISCRSSQSLLKSDGYNSLDWYLQRPGQSPQLLIYLGSNRASGVPARFSGSGSGTDFTLKISRVEAEDVGVYYCMQALQTPFTFGPGTKVEIK
For the molecule B12, the “Neutralization IC50 (RSV subtype A)” value in the assay with RSV F on RSV-A2 virus was over 25 µg/mL. Besides, the dissociation constant (Kd) stood at 1.91 nM in assay [1] and 0.313 nM in assay [2].

B13: ADI-25562 (antibody, V domains shown)
VH: QVQLVESGGGLVKPGGSLRLSCAASGFTFSDYYMSWIRQAPGKGLEWVSYISSSSSYTNYADSVKGRFTISRDNAKNSLYLQMNSLRAEDTAVYYCARVGYSSSWYNYFDYWGQGTLVTVSS
VL: SYVLTQPPSVSGAPGQRVTISCTGSSSNIGAGYDVHWYQQLPGTAPKLLIYGNSNRPSGVPDRFSGSKSGTSASLAITGLQAEDEADYYCQSYDSSLSGPVFGGGTKLTVL
notes: full-length IgG; also called Ab 453
In assay [3], B13 had a Kd of 3.32 nM. Besides, the “Neut IC50 subtype B” value in assay [4] was 1.14 µg/mL. Besides, the “Neut IC50 subtype A” value in assay [5] turned out to be 1.18 µg/mL. Also, the binding result in assay [6] was “no binding”.

B14: ADI-19420 (antibody, V domains shown)
VH: EVQLLESGGGLVKPGGSLRLSCAASGFTFSSYSMNWVRQAPGKGLEWVSSISSSSSYIYYADSVKGRFTISRDNAKNSLYLQMNSLRAEDTAVYYCARVGWGYSYGYWFDPWGQGTLVTVSS
VL: B13 VL with S1Q, Y2S, P100V
notes: full-length IgG
In the case of B14, the affinity in assay [3], expressed as Kd, was 2.47 nM. Further, in assay [4], the “Neut IC50 subtype B” value stood at 0.64 µg/mL. Moreover, the “Neut IC50 subtype A” value in assay [5] came to 0.55 µg/mL. Besides, the binding result in assay [6] is “no binding”.

B15: ADI-41459 (antibody, V domains shown)
VH: QVQLVESGGGLVQPGGSLRLSCAASGFPFSAYGINWVRQAPGKGLEWVSYISSTSTTIKYADSVKGRFTISRDDAKNSLYLQLRSLRPEDTAVYYCAGGVWSGYYIDFWGQGTPVTVSS
VL: NFMLTQPQSVSESPGKTVTISCTRSSGSIGSNFVQWYQQRPGSSPTTVIYEDYQRPSGVPDRFSGSIDSSSNSASLTISGLKTEDEADYYCQSYDADMMVFGGGTKLTVL
notes: also called Ab 743; Antibody Number 743
Regarding B15, the “Neutralization IC50 (RSV subtype A)” value with RSV F on RSV-A2 virus was over 25 µg/mL. Also, the Kd in assay [1] was determined as 1.89 nM; in assay [2], 0.343 nM.

B16: ADI-41456 (antibody, V domains shown)
VH: EVQLLESGGGLFHPGGSLTLSCVASGFTLSTYYMHWVRQAPGKGLVWVARINSDGGYTTYADSVKGRFTVSRDNAKNTLYLQMNSLRVEDTAVYYCAREWVEFDSWGQGTLVTVSS
VL: NFMLTQPHSVSASPGKTVTISCTRSSGNIASNYVQWYQQRPGSSPTTVITEDNQRPSGVPDRFSGSIDSSSNSASLTISGLKTEDEADYYCQSYDSSTYVFGTGTKLTVL
notes: also called Ab 740; Antibody Number 740
For the molecule B16, the “Neutralization IC50 (RSV subtype A)” value with RSV F on RSV-A2 virus is over 25 µg/mL. The values for the dissociation constant Kd in assay [1] and in assay [2] were 1.48 nM and 0.267 nM, respectively.

By Kd is commonly meant the concentration at which binding is half-saturated.
